In IntAct's records for PubMed 29039417:

B1: BBSome complex member BBS1 (Homo sapiens), Q8NFJ9 (parent)
chain: MAAASSSDSDACGAESNEANSKWLDAHYDPMANIHTFSACLALADLHGDGEYKLVVGDLGPGGQQPRLKVLKGPLVMTESPLPALPAAAATFLMEQHEPRTPALALASGPCVYVYKNLRPYFKFSLPQLPPNPLEQDLWNQAKEDRIDPLTLKEMLESIRETAEEPLSIQSLRFLQLELSEMEAFVNQHKSNSIKRQTVITTMTTLKKNLADEDAVSCLVLGTENKELLVLDPEAFTILAKMSLPSVPVFLEVSGQFDVEFRLAAACRNGNIYILRRDSKHPKYCIELSAQPVGLIRVHKVLVVGSTQDSLHGFTHKGKKLWTVQMPAAILTMNLLEQHSRGLQAVMAGLANGEVRIYRDKALLNVIHTPDAVTSLCFGRYGREDNTLIMTTRGGGLIIKILKRTAVFVEGGSEVGPPPAQAMKLNVPRKTRLYVDQTLREREAGTAMHRAFQTDLYLLRLRAARAYLQALESSLSPLSTTAREPLKLHAVVQGLGPTFKLTLHLQNTSTTRPVLGLLVCFLYNEALYSLPRAFFKVPLLVPGLNYPLETFVESLSNKGISDIIKVLVLREGQSAPLLSAHVNMPGSEGLAAA
partner: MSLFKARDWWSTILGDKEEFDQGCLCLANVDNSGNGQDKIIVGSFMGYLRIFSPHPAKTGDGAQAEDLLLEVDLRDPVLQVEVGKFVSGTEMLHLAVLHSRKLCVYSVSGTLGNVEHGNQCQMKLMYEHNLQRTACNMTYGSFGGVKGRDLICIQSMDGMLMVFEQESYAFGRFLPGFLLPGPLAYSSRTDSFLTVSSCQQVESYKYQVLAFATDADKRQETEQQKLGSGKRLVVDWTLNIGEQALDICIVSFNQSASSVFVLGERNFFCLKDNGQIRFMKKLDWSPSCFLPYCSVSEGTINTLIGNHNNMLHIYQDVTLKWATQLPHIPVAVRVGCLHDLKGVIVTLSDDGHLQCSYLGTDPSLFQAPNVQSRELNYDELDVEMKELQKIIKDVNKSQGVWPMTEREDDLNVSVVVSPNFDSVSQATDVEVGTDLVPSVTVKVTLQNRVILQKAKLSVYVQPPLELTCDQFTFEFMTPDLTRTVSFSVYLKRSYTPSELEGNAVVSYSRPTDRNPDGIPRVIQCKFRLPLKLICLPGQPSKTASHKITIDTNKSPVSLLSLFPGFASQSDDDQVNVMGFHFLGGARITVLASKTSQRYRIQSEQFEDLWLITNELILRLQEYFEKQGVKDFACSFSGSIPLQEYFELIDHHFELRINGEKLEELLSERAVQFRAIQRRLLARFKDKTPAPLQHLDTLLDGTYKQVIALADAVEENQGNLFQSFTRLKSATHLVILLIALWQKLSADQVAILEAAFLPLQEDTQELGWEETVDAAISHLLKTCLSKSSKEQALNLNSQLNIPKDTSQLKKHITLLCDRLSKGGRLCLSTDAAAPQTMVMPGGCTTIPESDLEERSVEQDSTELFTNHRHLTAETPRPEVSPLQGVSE

Variants of: B1
Conditions: with pthb1_human BBS9, Q3SYG4

Row | Variant | effect of a mutation on the interaction
1 | MAAASSSDSDACGAESNEANSKWLDAHYDPMANIHTFSACLALADLHGDGEYKLVVGDLGPGGQQPRLKVLKGPLVMTESPLPALPAAAATFLMEQHEPRTPALALASGPCVYVYKNLRPYFKFSLPQLPPNPLEQDLWNQAKEDRIDPLTLKEMLESIRETAEEPLSIQSLRFLQLELSEMEAFVNQHKSNSIKRQTVITTMTTLKKNLADEDAVSCLVLGTENKELLVLDPEAFTILAKMSLPSVPVFLEVSGQFDVEFRLAAACRNGNIYILRRDSKHPKYCIELSAQPVGLIRVHKVLVVGSTQDSLHGFTHKGKKLWTVQMPAAILTMNLLEQHSRGLQAVMAGLANGEVRIYRDKALLNVIHTPDAVTSLCFGRYGREDNTLIMTTRGGGLIIKILKRTAVFVEGGSEVGPPPAQAMKLNVPRKTRLYVDQTLREREAGTAMHRAFQTDLYLLRLRAARAYLQALESSLSPLSTTAREPLKLHAVVQGLGPTFKLTLHLQNTSTTRPVLGLLVCFLYNEALYSLPRAFFKVPLLVPGLNYPLETFVESLSNKGISDIIKVLVLAEGQSAPLLSAHVNMPGSEGLAAA [R570A] | with no effect
2 | MAAASSSDSDACGAESNEANSKWLDAHYDPMANIHTFSACLALADLHGDGEYKLVVGDLGPGGQQPRLKVLKGPLVMTESPLPALPAAAATFLMEQHEPRTPALALASGPCVYVYKNLRPYFKFSLPQLPPNPLEQDLWNQAKEDRIDPLTLKEMLESIRETAEEPLSIQSLRFLQLELSEMEAFVNQHKSNSIKRQTVITTMTTLKKNLADEDAVSCLVLGTENKELLVLDPEAFTILAKMSLPSVPVFLEVSGQFDVEFRLAAACRNGNIYILRRDSKHPKYCIELSAQPVGLIRVHKVLVVGSTQDSLHGFTHKGKKLWTVQMPAAILTMNLLEQHSRGLQAVMAGLANGEVRIYRDKALLNVIHTPDAVTSLCFGRYGREDNTLIMTTRGGGLIIKILKRTAVFVEGGSEVGPPPAQAMKLNVPRKTRLYVDQTLREREAGTAMHRAFQTDLYLLRLRAARAYLQALESSLSPLSTTAREPLKLHAVVQGLGPTFKLTLHLQNTSTTRPVLGLLVCFLYNEALYSLPRAFFKVPLLVPGLNYPLETFVESLSNKGISDIIKVLVLREAQSAPLLSAHVNMPGSEGLAAA [G572A] | with no effect
3 | MAAASSSDSDACGAESNEANSKWLDAHYDPMANIHTFSACLALADLHGDGEYKLVVGDLGPGGQQPRLKVLKGPLVMTESPLPALPAAAATFLMEQHEPRTPALALASGPCVYVYKNLRPYFKFSLPQLPPNPLEQDLWNQAKEDRIDPLTLKEMLESIRETAEEPLSIQSLRFLQLELSEMEAFVNQHKSNSIKRQTVITTMTTLKKNLADEDAVSCLVLGTENKELLVLDPEAFTILAKMSLPSVPVFLEVSGQFDVEFRLAAACRNGNIYILRRDSKHPKYCIELSAQPVGLIRVHKVLVVGSTQDSLHGFTHKGKKLWTVQMPAAILTMNLLEQHSRGLQAVMAGLANGEVRIYRDKALLNVIHTPDAVTSLCFGRYGREDNTLIMTTRGGGLIIKILKRTAVFVEGGSEVGPPPAQAMKLNVPRKTRLYVDQTLREREAGTAMHRAFQTDLYLLRLRAARAYLQALESSLSPLSTTAREPLKLHAVVQGLGPTFKLTLHLQNTSTTRPVLGLLVCFLYNEALYSLPRAFFKVPLLVPGLNYPLETFVESLSNKGISDIIKVLVKREGQSAPLLSAHVNMPGSEGLAAA [L569K] | with no effect

Second part, the variant after the results:

Row | effect of a mutation on the interaction | Variant
4 | with no effect | MAAASSSDSDACGAESNEANSKWLDAHYDPMANIHTFSACLALADLHGDGEYKLVVGDLGPGGQQPRLKVLKGPLVMTESPLPALPAAAATFLMEQHEPRTPALALASGPCVYVYKNLRPYFKFSLPQLPPNPLEQDLWNQAKEDRIDPLTLKEMLESIRETAEEPLSIQSLRFLQLELSEMEAFVNQHKSNSIKRQTVITTMTTLKKNLADEDAVSCLVLGTENKELLVLDPEAFTILAKMSLPSVPVFLEVSGQFDVEFRLAAACRNGNIYILRRDSKHPKYCIELSAQPVGLIRVHKVLVVGSTQDSLHGFTHKGKKLWTVQMPAAILTMNLLEQHSRGLQAVMAGLANGEVRIYRDKALLNVIHTPDAVTSLCFGRYGREDNTLIMTTRGGGLIIKILKRTAVFVEGGSEVGPPPAQAMKLNVPRKTRLYVDQTLREREAGTAMHRAFQTDLYLLRLRAARAYLQALESSLSPLSTTAREPLKLHAVVQGLGPTFKLTLHLQNTSTTRPVLGLLVCFLYNEALYSLPRAFFKVPLLVPGLNYPLETFVESLSNKGISDIIKVLVLREEQSAPLLSAHVNMPGSEGLAAA [G572E]
5 | with no effect | MAAASSSDSDACGAESNEANSKWLDAHYDPMANIHTFSACLALADLHGDGEYKLVVGDLGPGGQQPRLKVLKGPLVMTESPLPALPAAAATFLMEQHEPRTPALALASGPCVYVYKNLRPYFKFSLPQLPPNPLEQDLWNQAKEDRIDPLTLKEMLESIRETAEEPLSIQSLRFLQLELSEMEAFVNQHKSNSIKRQTVITTMTTLKKNLADEDAVSCLVLGTENKELLVLDPEAFTILAKMSLPSVPVFLEVSGQFDVEFRLAAACRNGNIYILRRDSKHPKYCIELSAQPVGLIRVHKVLVVGSTQDSLHGFTHKGKKLWTVQMPAAILTMNLLEQHSRGLQAVMAGLANGEVRIYRDKALLNVIHTPDAVTSLCFGRYGREDNTLIMTTRGGGLIIKILKRTAVFVEGGSEVGPPPAQAMKLNVPRKTRLYVDQTLREREAGTAMHRAFQTDLYLLRLRAARAYLQALESSLSPLSTTAREPLKLHAVVQGLGPTFKLTLHLQNTSTTRPVLGLLVCFLYNEALYSLPRAFFKVPLLVPGLNYPLETFVESLSNKGISDIIKVLVLREKQSAPLLSAHVNMPGSEGLAAA [G572K]
